Measured values as given in patent publication US20230039487A1.

How the values were obtained:
[1] = biological target: hBCMA-mFc (UniProt Q02223); assay: competition ELISA; isotype control; blocking of APRIL binding
[2] = biological target: hBCMA-His (human) (UniProt Q02223); assay: ELISA; isotype control
Chain of hBCMA-His (human) (Q02223 1-54): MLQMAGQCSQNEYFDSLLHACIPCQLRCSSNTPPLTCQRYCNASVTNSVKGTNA

Chain of hBCMA-mFc (Q02223 1-54): as above

IC50 [1]: 202 nM | EC50 [2]: 61.4 nM
Substance: h IgG1 ISO
